Data reported in patent US20040018971A1.

T1: HLA-DRB1*0101 (human)
T1 chain 1: not shown
T1 chain 2: not shown

T2: HLA-DRB1*0301 (human)
T2 chain 1: not shown
T2 chain 2: not shown

T3: HLA-DR3 (DRB1*0301) (human)
T3 chain 1: not shown
T3 chain 2: not shown


Biological target: T1, HLA-DRB1*0101 (human)
Assay: competition with 125I probe peptide, purified HLA
Details: remark: other sources report otherwise

Binder	IC50
NLELTYLPTNASLSF [Her2/neu.59]	11 nM
CKKIFGSLAFLPESF [Her2/neu.367]	21 nM

Biological target: HLA-A*2401 (purified HLA class I molecule) (human)
Assay: competition with 125I-labelled probe peptide for purified HLA, gel filtration
Details: not given

relative binding ratio (IC50 of standard peptide / IC50 of test peptide)	Binder
0.08	VWSYGVTVW [HER2/neu peptide, position 905, 9 amino acids]
0.0001	YVMAGVGSPY [HER2/neu peptide, position 772, 10 amino acids]

Continued, binder first:

Binder	relative binding ratio (IC50 of standard peptide / IC50 of test peptide)
VWSYGVTVWEL [HER2/neu peptide, position 905, 11 amino acids]	0.092
VYMIMVKCWM [HER2/neu peptide, position 951, 10 amino acids]	0.022

Biological target: HLA-A*2401 (human)
Assay: competition with 125I-labelled standard peptide for purified HLA, gel filtration
Details: not given

relative binding ratio (IC50 of standard peptide / IC50 of test peptide) (ratio to standard peptide)	Binder
0.015	KWMALESIL [HER2/neu peptide, position 887, 9 amino acids]
0.0024	KYTMRRLL [HER2/neu peptide, position 684, 8 amino acids]
0.0006	LFEDNYAL [HER2/neu peptide, position 107, 8 amino acids]
0.0006	LFEDNYALAVL [HER2/neu peptide, position 107, 11 amino acids]
0.0002	LFRNPHQAL [HER2/neu peptide, position 485, 9 amino acids]
0.0001	LMTFGAKPY [HER2/neu peptide, position 915, 9 amino acids]
0.0002	NWCMQIAKGM [HER2/neu peptide, position 824, 10 amino acids]
0.0005	PYDGIPAREI [HER2/neu peptide, position 922, 10 amino acids]

More lines, now with the values behind:

Binder	relative binding ratio (IC50 of standard peptide / IC50 of test peptide) (ratio to standard peptide)
KWMALESI [HER2/neu peptide, position 887, 8 amino acids]	0.008
LFRNPHQALL [HER2/neu peptide, position 485, 10 amino acids]	0.0014
LMPYGCLL [HER2/neu peptide, position 800, 8 amino acids]	0.0076
LYISAWPDSL [HER2/neu peptide, position 410, 10 amino acids]	0.084
PMCKGSRCW [HER2/neu peptide, position 197, 9 amino acids]	0.0011
PYVSRLLGI [HER2/neu peptide, position 780, 9 amino acids]	0.17

Biological target: HLA-A*2401 (purified HLA class I molecule) (human)
Assay: as above
Details: scale: ratio

relative binding ratio	Binder
0.012	EYLVPQQGFF [HER2/neu peptide, position 1022, 10 amino acids]
0.0061	EYVNARHCL [HER2/neu peptide, position 553, 9 amino acids]
-0.0003	GMGAAKGL [HER2/neu peptide, position 1091, 8 amino acids]
-0.0003	GMGAAKGLQSL [HER2/neu peptide, position 1091, 11 amino acids]
0.0044	GYLYISAW [HER2/neu peptide, position 408, 8 amino acids]
-0.0003	IFHKNNQL [HER2/neu peptide, position 172, 8 amino acids]

The remaining lines, values behind:

Binder	relative binding ratio
EYHADGGKVPI [HER2/neu peptide, position 876, 11 amino acids]	-0.0003
EYLVPQQGF [HER2/neu peptide, position 1022, 9 amino acids]	0.0014
HFNHSGICEL [HER2/neu peptide, position 257, 10 amino acids]	0.0002
IFGSLAFL [HER2/neu peptide, position 370, 8 amino acids]	0.012
IMVKCWMI [HER2/neu peptide, position 954, 8 amino acids]	0.021
IWIPDGENVKI [HER2/neu peptide, position 738, 11 amino acids]	0.0027

Biological target: HLA-A*2401 (human)
Assay: inhibition of 125I-labelled standard peptide binding to purified HLA, gel filtration
Details: not given

relative binding ratio (IC50 of standard peptide / IC50 of test peptide)	Binder
0.011	RFTHQSDVW [HER2/neu peptide, position 898, 9 amino acids]
0.025	RWGLLLAL [HER2/neu peptide, position 8, 8 amino acids]
1.3	RWGLLLALL [HER2/neu peptide, position 8, 9 amino acids]
0.0001	SMPNPEGRY [HER2/neu peptide, position 281, 9 amino acids]
0.018	SMPNPEGRYTF [HER2/neu peptide, position 281, 11 amino acids]
-0.0003	SWLGLRSL [HER2/neu peptide, position 451, 8 amino acids]
0.0036	SWLGLRSLREL [HER2/neu peptide, position 451, 11 amino acids]
0.12	SYGVTVWEL [HER2/neu peptide, position 907, 9 amino acids]
0.063	SYGVTVWELM [HER2/neu peptide, position 907, 10 amino acids]
0.32	SYMPIWKF [HER2/neu peptide, position 609, 8 amino acids]
-0.0003	TMRRLLQETEL [HER2/neu peptide, position 686, 11 amino acids]
0.038	TYLPTNASL [HER2/neu peptide, position 63, 9 amino acids]

Continued, binder first:

Binder	relative binding ratio (IC50 of standard peptide / IC50 of test peptide)
RFRELVSEF [HER2/neu peptide, position 968, 9 amino acids]	0.018
RFVVIQNEDL [HER2/neu peptide, position 985, 10 amino acids]	0.0002
RMARDPQRF [HER2/neu peptide, position 978, 9 amino acids]	0.0032
RYSEDPTVPL [HER2/neu peptide, position 1111, 10 amino acids]	0.012
SYLEDVRL [HER2/neu peptide, position 834, 8 amino acids]	0.0059
TFGAKPYDGI [HER2/neu peptide, position 917, 10 amino acids]	0.0002

Biological target: T1, HLA-DRB1*0101 (human)
Assay: inhibition of 125I probe peptide binding to purified HLA-DR, gel filtration
Details: remark: other sources report otherwise

Binder	IC50
NLELTYLPTNASLSF [Her2/neu.59]	11 nM
CKKIFGSLAFLPESF [Her2/neu.367]	21 nM

Biological target: T2, HLA-DRB1*0301 (human)
Assay: competition with 125I-labeled standard peptide, purified HLA-DR, gel filtration
Details: remark: other sources report otherwise

Binder	relative binding ratio (ratio (standard IC50 / test IC50))
LQGLPREYVNARHCL [HER2/neu DR supermotif exemplary peptide … (position 547)]	-0.0027
LQRYSEDPTVPLPSE [HER2/neu DR supermotif exemplary peptide … (position 1109)]	0.027

Biological target: T3, HLA-DR3 (DRB1*0301) (human)
Assay: competition binding assay, purified HLA, 125I-labelled probe peptide, gel filtration
Details: remark: other sources report otherwise

Binder	relative binding ratio (ratio to standard peptide)
LQGLPREYVNARHCL [HER2/neu peptide … (position 547)]	-0.0027
LQRYSEDPTVPLPSE [HER2/neu peptide … (position 1109)]	0.027
PESFDGDPASNTAPL [HER2/neu peptide … (position 378)]	-0.0027

Biological target: HLA-A*0201 (human)
Assay: competitive inhibition of 125I-labeled probe peptide binding to purified HLA-A*0201
Details: remark: other sources report otherwise

Binder	IC50
ILHNGAYSL [Her2/neu.435]	< 500 nM
ILDEAYVMA [Her2/neu.767]	< 500 nM
ALCRWGLLL [Her2/neu.5]	< 500 nM
HLYQGCQVV [Her2/neu.48]	< 500 nM

Biological target: HLA-A*0101 (human)
Assay: competition with 125I-labelled probe peptide for purified HLA-A*0101, gel filtration; relative to standard peptide
Details: remark: other sources report otherwise

Binder	relative binding ratio (IC50 of standard peptide / IC50 of test peptide) (relative binding ratio)
FESMPNPEGRY [HER2/neu peptide, position 279, 11 amino acids]	0.0049
